Measurements from patent US20230002500A1 (BEIGENE, published 2023).
One block for each binder: values may come before it.

Legend:
[1] = biological target: T1, recombinant OX40 protein with a His tag (Cat: 10481-H08H, Sino Biological) (UniProt P43489 29-216); assay: SPR (BIAcore T-200), antibody captured by anti-human IgG, OX40-His flowed; Test 1
T1 construct: Bought protein; not shown: His tag
T1 sequence (looked up): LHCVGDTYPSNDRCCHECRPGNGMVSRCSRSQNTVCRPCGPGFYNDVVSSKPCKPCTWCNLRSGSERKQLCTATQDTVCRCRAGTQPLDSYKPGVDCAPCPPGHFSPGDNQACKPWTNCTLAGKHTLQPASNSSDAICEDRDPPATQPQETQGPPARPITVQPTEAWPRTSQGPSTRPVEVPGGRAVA
Description: (§1) The anti-OX40 antibodies were characterized for their binding kinetics and affinity by SPR assays using BIAcore™ T-200 (GE Life Sciences). Briefly, anti-human IgG antibody was immobilized on an activated CM5 biosensor chip (Cat: BR100530, GE Life Sciences). An antibody with human IgG Fc region was flowed over the chip surface and captured by anti-human IgG antibody. Then a serial dilution of recombinant OX40 protein with a His tag (Cat: 10481-H08H, Sino Biological) was flowed over the chip surface and changes in surface plasmon resonance signals were analyzed to calculate the association rates (ka) and dissociation rates (kd) by using the one-to-one Langmuir binding model (BIA Evaluation Software, GE Life Sciences). The equilibrium dissociation constant (KD) was calculated as the ratio kd/ka.

[2] = biological target: T1, recombinant OX40 protein with a His tag …; assay: SPR (BIAcore T-200), antibody captured by anti-human IgG, OX40-His flowed; Test 2
Description: as §1

[3] = biological target: T1, recombinant OX40 protein with a His tag …; assay: Biacore SPR (set-up not named on the sheet; by Example 4 antibody captured, OX40-His flowed)
[4] = biological target: T2, full-length human OX40 expressed on HuT78 cells (HuT78/OX40) (human, UniProt P43489 29-277); assay: cell-based or functional assay
T2 sequence: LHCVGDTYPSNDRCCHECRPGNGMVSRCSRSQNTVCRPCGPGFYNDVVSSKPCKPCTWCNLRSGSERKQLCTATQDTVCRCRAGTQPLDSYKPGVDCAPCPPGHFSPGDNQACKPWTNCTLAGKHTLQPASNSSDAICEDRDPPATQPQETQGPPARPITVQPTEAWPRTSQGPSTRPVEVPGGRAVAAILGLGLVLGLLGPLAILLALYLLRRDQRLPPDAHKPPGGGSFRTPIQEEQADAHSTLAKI

koff [1]: 0.00161 s⁻¹ | kon [1]: 161000 M⁻¹ s⁻¹
B1: 445-3 IgG4 (445-3 with the Fc domain of human IgG4 with S228P and R409K mutations) (antibody, V domains shown)
VH: QVQLVQSGAEVKKPGSSVKVSCKASGYKFTSYIIHWVRQAPGQGLEWMGYINPYNEGTRYNQKFQGRVTLTADKSTSTAYMELSSLRSEDTAVYYCARGYYGSSYAMDYWGQGTTVTVSS
VL: DIQMTQSPSSLSASVGDRVTITCRASQGISNYLNWYQQKPDGAIKLLIYDASTLYSGVPSRFSGSGSGTDFTLTISSLQPEDFATYYCQQYSKLPYTFGGGTKVEIK

koff [2]: 0.00159 s⁻¹ | kon [2]: 163000 M⁻¹ s⁻¹ | koff [1]: 0.00167 s⁻¹ | kon [1]: 182000 M⁻¹ s⁻¹ | koff [3]: 0.00148 s⁻¹ | kon [3]: 174000 M⁻¹ s⁻¹ | ADCC, LDH release, NK92MI/CD16V effector cells and HuT78/OX40 target cells, EC50 [4]: 27 ng/mL | IL-2 production of HuT78/OX40 cells co-cultured with HEK293/OS8Low-FcγRI cells (ELISA), EC50 [4]: 0.06 ng/mL
B2: humanized anti-OX40 monoclonal antibody 445-3 (antibody, V domains shown)
VH: B1 VH
VL: B1 VL
notes: Human IgG1 wild type format
